Results published in patent US20260008817A1, “CYCLIC PEPTIDE OR SALT THEREOF, AND USES THEREOF” (FUJIFILM Corporation, priority 2023, published 2026).
Positions of bridges follow the written chain, without caps; N, C: chain ends. No end group written: not given here. COCH2 = acetyl group that carries the bridge

Legend:
[1] = molecular target: T1, FGFR1 Protein, Human, Recombinant (His Tag) (Sino Biological, 10616-H08H) (human, UniProt P11362-7 22-374); assay: SPR grade, FGFR 1 umol/L over immobilized peptide
T1 construct: bought; flowed at 1 umol/L over immobilized peptide
T1 sequence (looked up): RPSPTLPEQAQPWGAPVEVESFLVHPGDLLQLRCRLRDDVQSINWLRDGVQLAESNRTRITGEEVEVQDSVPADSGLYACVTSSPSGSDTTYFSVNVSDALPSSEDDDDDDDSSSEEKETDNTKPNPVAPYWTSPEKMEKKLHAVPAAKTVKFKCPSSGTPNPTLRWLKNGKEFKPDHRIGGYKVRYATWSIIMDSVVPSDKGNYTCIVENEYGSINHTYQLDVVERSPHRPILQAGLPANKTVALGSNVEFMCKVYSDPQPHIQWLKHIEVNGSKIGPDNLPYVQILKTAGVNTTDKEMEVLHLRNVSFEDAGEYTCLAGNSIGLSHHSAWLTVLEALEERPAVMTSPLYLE
Procedure: (§1) A CM5 sensor chip (Cytiva, 29149603) was set in Biacore-T200 (manufactured by Cytiva) which is a surface plasmon resonance device, and an HBS-EP buffer (Cytiva, BR100826) was added as a running buffer at a flow rate of 10 μL/min to equilibrate the flow channel. Next, 70 μL of a mixed aqueous solution of 0.2 mol/L 1-(3-dimethylaminopropyl)-3-ethylcarbodiimide (EDC) and 0.05 mol/L N-hydroxysuccinimide (NHS) was added to activate the sensor chip. Then, a cyclic peptide prepared to 2 mg/mL in HBS-EP buffer was added thereto to perform immobilization at about 200 RU. Thereafter, the blocking treatment was performed with an ethanolamine solution. In addition, in another flow channel of the same sensor chip, blocking treatment was performed immediately after activation without […].
(§2) After various FGFRs (FGFR1 Protein, Human, Recombinant (His Tag) (Sino Biological, 10616-H08H), FGFR3 Protein, Human, Recombinant (ECD, His Tag) (Sino Biological, 16044-H08H), FGFR4 Protein, Human, Recombinant (His Tag) (Sino Biological, 10538-H08H)) diluted with HBS-EP to 1 μmol/L at 25° C. was added to each flow channel of the cyclic peptide-immobilized sensor chip prepared above, for 10 minutes, HBS-EP was allowed to flow as a running buffer for 30 minutes, and the binding of various FGFRs to the cyclic peptide was measured. […] The binding amount of the cyclic peptide was evaluated from the difference between the measured value of Biacore-T200 in the flow channel in which the cyclic peptide was immobilized and the measured value of Biacore-T200 in the flow channel in which the cyclic peptide was not immobilized, in a case where 1 μmol/L FGFR was allowed to flow.
(§3) The binding amount of FGFR evaluated above was normalized to the binding amount of FGFR molecules per one molecule of the cyclic peptide using the molecular weights of the cyclic peptide and FGFR, and the binding affinity to FGFR was evaluated according to the following evaluation criteria.

[2] = molecular target: T2, FGFR3 Protein, Human, Recombinant (ECD, His Tag) (Sino Biological, 16044-H08H) (human, UniProt P22607 23-375); assay: SPR grade, FGFR 1 umol/L over immobilized peptide
T2 construct: extracellular domain; bought; flowed at 1 umol/L over immobilized peptide
T2 sequence (looked up): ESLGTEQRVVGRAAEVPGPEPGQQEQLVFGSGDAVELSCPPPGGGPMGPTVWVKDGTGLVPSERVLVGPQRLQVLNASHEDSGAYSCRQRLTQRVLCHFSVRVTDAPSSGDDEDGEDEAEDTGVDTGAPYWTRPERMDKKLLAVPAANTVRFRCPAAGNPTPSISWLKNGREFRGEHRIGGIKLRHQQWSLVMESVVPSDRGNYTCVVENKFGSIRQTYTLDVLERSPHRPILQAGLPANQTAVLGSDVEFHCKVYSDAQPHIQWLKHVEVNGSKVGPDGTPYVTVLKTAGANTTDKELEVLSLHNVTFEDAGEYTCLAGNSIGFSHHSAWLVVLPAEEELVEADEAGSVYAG
Procedure: as §1, §2, §3

[3] = molecular target: T3, FGFR4 Protein, Human, Recombinant (His Tag) (Sino Biological, 10538-H08H) (human, UniProt P22455 22-369); assay: SPR grade, FGFR 1 umol/L over immobilized peptide
T3 construct: bought; flowed at 1 umol/L over immobilized peptide
T3 sequence (looked up): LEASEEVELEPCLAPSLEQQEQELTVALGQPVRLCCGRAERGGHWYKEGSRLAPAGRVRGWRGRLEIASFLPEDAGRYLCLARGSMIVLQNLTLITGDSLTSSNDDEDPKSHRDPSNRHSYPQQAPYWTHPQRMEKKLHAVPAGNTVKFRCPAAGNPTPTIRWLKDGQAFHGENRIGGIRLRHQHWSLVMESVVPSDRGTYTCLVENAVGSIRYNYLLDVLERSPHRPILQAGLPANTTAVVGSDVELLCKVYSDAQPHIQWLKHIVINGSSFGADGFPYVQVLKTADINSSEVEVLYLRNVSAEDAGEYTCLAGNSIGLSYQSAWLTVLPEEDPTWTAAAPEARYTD
Procedure: as §1, §2, §3

[4] = molecular target: Recombinant Human FGFR1 alpha (IIIc) Fc Chimera Protein, CF (R&D systems, 658-FR-050) (human) (UniProt P11362); assay: SPR grade, peptide 10 nmol/L over FGFR1-Fc; conditions: scale: moleculesofcyclicpeptide/onemoleculeoffgfr

## ACVWTFDRHAQEISQALHK(COCH2)VKKK (thioether 2-19, chemically synthesized) [cyclic peptide SEQ ID NO: 335]
[1]
  binding amount (SPR, molecules of FGFR per one molecule of cyclic peptide, at 1 umol/L FGFR): ≥ 0.05 moleculesoffgfr/onemoleculeofthecyclicpeptide
[2]
  binding amount (SPR, molecules of FGFR per one molecule of cyclic peptide, at 1 umol/L FGFR): 0.01 to 0.05 moleculesoffgfr/onemoleculeofthecyclicpeptide
[3]
  binding amount (SPR, molecules of FGFR per one molecule of cyclic peptide, at 1 umol/L FGFR): ≥ 0.05 moleculesoffgfr/onemoleculeofthecyclicpeptide
[4]
  binding amount (SPR, molecules of cyclic peptide bound per one molecule of FGFR at 10 nmol/L peptide): > 0.7
